{
  "source": "patent US20080227700A1",
  "about": "“Compositions and Methods for Treatment of Protein Misfolding and Protein Aggregation Diseases” (priority 2004, published 2008)",
  "key": {"βL crystallin": {"system": "βL crystallin", "test": "Chaperone assay, thermal aggregation of βL crystallin", "assay_type": "biochemical", "details": "light scattering at λ=340 nm; 1:10 target protein:peptide; comparison among five peptides", "procedure": "Chaperone Assays. Chaperone assays of the five peptides were performed using previously established methods with minor modifications. Muchowski et al., J Mol Biol 289: 397-411, 1999. A 1:1 monomeric molar ratio of chaperone: target protein was determined to be the optimum ratio and all subsequent chaperone assays of the β3 mutants were performed in triplicate and at a 1:1 monomeric molar ratio of chaperone: target protein in a 96-well ELISA micro-titer plate. […] of the chaperone and βL crystallin were mixed in a total volume of 200 μL buffer (5 mM PBS, pH 7.0). Light scattering at λ=340 nm was measured using a Multiskan MCC/340 plate reader before heating (time=0). After the first reading, the plate was heated at 50° C. and readings were taken at fifteen minute intervals for one hour.\nThe ability of the peptides to suppress the thermal aggregation of βL crystallin was measured spectrophotometrically as light scattering at λ=340 nm from solutions containing 1:10 monomeric molar ratio of target protein: peptide."}, "γD crystallin [1]": {"target": "T1, γD crystallin (Homo sapiens, UniProt P07320)", "T1 sequence (P07320 1-174)": "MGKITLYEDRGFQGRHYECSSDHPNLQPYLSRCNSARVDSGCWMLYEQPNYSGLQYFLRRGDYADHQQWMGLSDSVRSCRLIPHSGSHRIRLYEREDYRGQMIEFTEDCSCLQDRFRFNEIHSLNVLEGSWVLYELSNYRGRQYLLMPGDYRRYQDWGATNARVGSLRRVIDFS", "test": "γD crystallin ThioflavinT fluorescence (fibrillization of γD crystallin)", "assay_type": "biochemical", "details": "1:1 γD crystallin:peptide; for effect on the fibrillization of γD crystallin: ThioflavinT fluorescence after 72 hrs, comparison among αB crystallin and five peptides", "procedure": "γD crystallin Thioflaviin T fluorescence. γD crystallin fibrils were formed in a similar way to that of γ crystalline. Meehan et al., J Biol Chem 279: 3413-3419, 2004. Peptides were dissolved to […] IN tfe AND DILUTED to 0.91 mM stock solutions in 10% TFE, pH 2.0.\n3.5 mg of ThioflavinT was dissolved in 100 μL of 50 mM Glycine pH 8.5. A stock solution of 1 mg/ml (0.22 mM) Aβ was prepared. 20 μl Aβ, 5 μl chaperone, 2 μl ThioflavinT was mixed with 73 μL 10% TFE, pH 2.0. Fluorescence was read using a Beckman Coultier DTX 880 multimode detector. Samples were heated at 50° C. for 72 hours and fluorescence was read again.\nThe fibrillization of γD crystallin was measured as fluorescence of the fluorescent dye ThioflavinT from solutions containing 1:1 monomeric molar ratio of γD crystallin:peptide. In the absence of fibrils ThioflavinT had little or no fluorescence. The fluorescence of the ThioflavinT bound to γD crystallin fibrils in the absence of any other molecule after 72 hrs was set to 100%. […] Fibril formation=ΔfluorescenceγD crystallin (with chaperone)*100/ΔfluorescenceγD crystallin (without chaperone)."}, "beta amyloid": {"target": "beta amyloid (Homo sapiens, UniProt P05067)", "test": "αB crystallin protein pin array screened for binding to beta amyloid", "details": "immobilized 8-mer peptide; absorption at 450 nm; assayed 2-5 times", "text": "αB Crystallin peptides that bind the target protein beta-amyloid were identified by screening an αB crystallin protein pin array, which provides a systematic method for evaluating interactions between peptides corresponding to residues 1-175 of human αB crystallin and selected target proteins in a parallel and simultaneous manner.\nPeptides were synthesized on derivatized polyethylene pins arranged in a microtiter plate format. Each peptide was 8 amino acids in length and consecutive peptides were offset by 2 amino acids. All peptides were covalently bonded to the surface plastic pins. The first immobilized peptide was 1MDIAIHHP8 and the last peptide was 168PAVTAAPK175 for the human αB crystallin.\nAfter synthesis, the pins were pre-coated at room temperature with 2% Bovine Serum Albumin (BSA), 0.1% Tween-20 and 0.1% Sodium azide in 10 mM phosphate buffered saline pH 7.2 (PBS) for 1 hr, and washed three times for 10 mins each with 10 mM PBS. To screen for binding to the peptides, fixed concentrations of the target protein beta amyloid was dissolved in 10 mM PBS, containing 0.05% Tween-20, added to each well and incubated for 1 hr at room temperature. The pin array was washed three times for 10 mins each with 10 mM PBS, containing 0.05% Tween-20. Monoclonal or polyclonal primary antibodies for the target protein beta amyloid was diluted into PBS buffer, added to each well and incubated for 1 hr at room temperature. Subsequently, the pin array was washed three times for 10 mins each with 10 mM PBS containing 0.05% Tween-20. Anti-rabbit horse-radish peroxidase conjugate secondary antibodies was diluted into PBS buffer, added to each well and incubated for 1 hr at room temperature. The pin array was washed three times for 10 mins each with 10 mM PBS containing 0.05% Tween-20. A chromogenic substrate of horse-radish peroxidase 3,3′,5,5′-Tetramethylbenzidine (TMB) (Pharmingen, San Diego, Calif.) which is colorless was added, and the reaction was carried out for 45 min.\nThe reaction was stopped by adding 6N sulfuric acid, which changes the color from blue to yellow. The absorption at 450 nm was measured by an ELISA reader (BioTek, Winooski, Vt.).\nThe pin array was regenerated by sonication in a water bath (VWR Aquasonic, West Chester, Pa.) with 100 mM PBS, containing 1% Sodium dodecyl sulfate (SDS) and 0.1% 2-Mercaptoethanol @ 60° C. for 10 mins. Next, the pin array was rinsed three times in deionized water, preheated to 60° C. for 30 secs each time, and shaken in water preheated at 60° C. for 30 min. The pin array was then washed with methanol at 60° C. for 15 secs and air-dried and stored @−20° C. for future use. Each target protein was assayed 2-5 times against the human αB crystallin protein pin array peptides to verify the reproducibility of the results. Peptides numbered 5, 7, 8, 9, 13, 19, 22, 23, 24, 27, 35, 38, 45, 51, 52, 56, 57, 61, 66, 71, 72, and 79 in Table 2 reproducibly tested positive in the protein pin assay."}, "[2]": {"target": "T2, equine alcohol dehydrogenase (ADH) (Equus caballus, UniProt P00327)", "T2 construct": "purchased", "T2 sequence (P00327 whole entry)": "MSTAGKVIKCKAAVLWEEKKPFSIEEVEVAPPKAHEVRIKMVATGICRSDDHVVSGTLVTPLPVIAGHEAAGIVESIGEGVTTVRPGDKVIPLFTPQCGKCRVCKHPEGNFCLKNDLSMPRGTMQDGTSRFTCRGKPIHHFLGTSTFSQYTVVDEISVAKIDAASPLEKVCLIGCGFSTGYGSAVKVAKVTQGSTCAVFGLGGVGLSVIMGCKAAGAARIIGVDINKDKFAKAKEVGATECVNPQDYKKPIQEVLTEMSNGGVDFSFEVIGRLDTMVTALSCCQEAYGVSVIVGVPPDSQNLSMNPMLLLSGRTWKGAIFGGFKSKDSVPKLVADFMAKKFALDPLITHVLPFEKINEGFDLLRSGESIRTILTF", "test": "Protein pin array interaction with alcohol dehydrogenase", "assay_type": "binding", "details": "ADH as ligand, unheated and pre-heated", "text": "(§1) Synthesis of Pins, binding and detection of peptides binding to ligand proteins. The αB crystallin protein pin array was used to measure the interaction between peptides and chaperone target proteins including bovine βH crystallin, human γD crystallin, equine alcohol dehydrogenase (ADH) and porcine citrate synthase (CS) as described (FIG. 12). Ghosh and Clark, Protein Sci 14: 684-95, 2005.\n(§2) Refer to the methods section for detailed protocols. The absorbance corresponding to the blue coloration in each well was measured at λ=450 nm and plotted against the amino acid sequence of the corresponding peptide in that well (FIGS. 13 and 14). Wells containing peptides that have strong interactions with target proteins are dark blue and wells containing peptides that have weak or no interaction with target proteins are light blue or clear.\n(§3) The purity of the target proteins used in the pin array assays, bovine βH crystallin, human γD crystallin, equine alcohol dehydrogenase (ADH) and porcine citrate synthase (CS) were determined to be >90% by SDS-PAGE. In addition, primary antibodies for each target protein were specific to that target protein and consequently contaminating proteins that may bind to the peptides will not be detected. Eighty-four sequential and overlapping peptide fragments corresponding to residues 1-175 of human αB crystallin were synthesized employing a simultaneous peptide synthesis strategy developed by Geysen, called Multipin Peptide Synthesis (Mimotopes, San Diego, Calif.). Geysen, Southeast Asian J Trop Med Public Health 21: 523-33, 1990; Chin et al., J Org Chem 62: 538-539, 1997. Peptides were immobilized on derivatized polyethylene pins arranged in a microtiter ELISA plate format. Each peptide was eight amino acids in length and consecutive peptides were offset by two amino acids. All peptides were bound covalently to the surface of the plastic pins. The first peptide was […] for human αB crystallin.\n(§4) Ghosh and Clark, Protein Sci 14: 684-95, 2005. […] The intensity of the blue color in the wells was measured at 450 nm using an ELISA plate-reader (BioTek, Winooski, Vt.). The intensity of the blue color (plotted on the X-axis) was a measure of the interaction between αB crystallin peptides (plotted on the Y-axis) and target proteins. To measure the effect of temperature on the interactions between interactive peptides and the target proteins, the target proteins were heated in a water-bath at 45° C. for fifteen minutes prior to use. Pin arrays are unable to differentiate between monomers, dimers or oligomers of target proteins that exist in solution. Instead, pin arrays are very sensitive detectors of interactions between individual peptides and the entire population (monomers, dimers or oligomers) of specific target proteins that may exist in solution under specific conditions. Each target protein was assayed two to five times. A single pin array was used for all experiments and no change in interactions was observed after more than thirty repetitions. The last three peptides of the protein pin array, 163REEKPAVT170, 165EKPAVTAA172, 167PAVTAAPK174, correspond to the epitope (163REEKPAVTAAPKK175) recognized by the primary antibody for human αB crystallin. A positive reaction is observed for these three peptides in the absence of human αB crystallin as the ligand due to direct binding of the anti-human αB crystallin antibody to these three peptides. The loss of efficiency for the pin array was measured using this assay. The loss of efficiency for the pin array was determined to be <5% by after more than 30 assays.\n(§5) The Y-axis lists the amino acid sequences of the 8-mer peptides that are immobilized sequentially in a 96-well format. […]"}, "[3]": {"target": "T3, porcine citrate synthase (CS) (Sus scrofa, UniProt P00889)", "T3 construct": "purchased", "T3 sequence (P00889 28-464)": "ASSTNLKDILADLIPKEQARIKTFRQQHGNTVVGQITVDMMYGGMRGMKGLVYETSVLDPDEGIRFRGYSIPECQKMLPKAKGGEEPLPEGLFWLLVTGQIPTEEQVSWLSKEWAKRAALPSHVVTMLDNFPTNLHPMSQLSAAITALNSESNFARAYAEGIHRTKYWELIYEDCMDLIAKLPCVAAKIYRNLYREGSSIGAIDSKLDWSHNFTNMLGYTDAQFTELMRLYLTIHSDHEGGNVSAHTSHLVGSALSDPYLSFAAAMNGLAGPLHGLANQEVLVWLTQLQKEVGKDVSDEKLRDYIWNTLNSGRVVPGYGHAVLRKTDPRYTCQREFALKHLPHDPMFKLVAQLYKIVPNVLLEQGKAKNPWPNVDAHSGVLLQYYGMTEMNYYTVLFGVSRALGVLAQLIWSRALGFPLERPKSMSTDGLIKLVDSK", "test": "Protein pin array interaction with citrate synthase", "assay_type": "binding", "details": "CS as target protein, unheated and pre-heated", "text": "as §1, §2, §3, §4, §5"}, "bovine βH crystallin": {"system": "bovine βH crystallin", "test": "Protein pin array interaction with βH crystallin", "assay_type": "binding", "details": "unheated βH crystallin; similar maxima with βH crystallin pre-heated at 45° C. for fifteen minutes", "text": "as §1, §2, §3, §4\n(§6) The amino acid sequences of each 8-mer human αB crystallin peptide immobilized sequentially on 84 pins in a 96-well ELISA plate format are listed on the Y-axis. […]"}, "γD crystallin [4]": {"target": "T1, γD crystallin", "test": "Protein pin array interaction with γD crystallin", "assay_type": "binding", "design": "purchased", "details": "unheated γD crystallin; similar peptide sequences with γD crystallin pre-heated at 45° C. for fifteen minutes", "text": "as §1, §2, §3, §4, §6"}, "Aβ": {"target": "Aβ (Homo sapiens, UniProt P05067)", "test": "Aβ ThioflavinT fluorescence (fibrillization of Aβ)", "assay_type": "biochemical", "details": "ThioflavinT; 50° C. for 72 hours; 1:10 Aβ:peptide; no chaperone 1,324,974,048", "procedure": "Aβ Thioflaviin T fluorescence. Aβ fibrils were grown in the presence and absence of αB crystallin and peptides in conditions similar to that previously described for the presence of αB crystallin. Bakthisaran et al., Biochem J, 2005. Peptides were dissolved to 9.1 mM in trifluorethanol (TFE) and diluted to 0.91 mM stock solutions in 50 mM PBS, 100 mM NaCl, pH 7.4. 3.5 mg of ThioflavinT was dissolved in 100 μl of 50 mM Glycine pH 8.5. A stock solution of 1 mg/ml (0.22 mM) Aβ was prepared. 20 μl Aβ, 50 μl chaperone, 2 μl ThioflavinT was mixed with 28 μl 50 mM PBS, 100 mM NaCl, pH 7.4. Fluorescence was read using a Beckman Coultier DTX 880 multimode detector. Samples were heated at 50° C. for 72 hours and fluorescence was read again.\nThe fibrillization of Aβ was measured as fluorescence of the fluorescent dye ThioflavinT from solutions containing 1:10 monomeric molar ratio of Aβ:peptide. In the absence of Aβfibrils, ThioflavinT had little or no fluorescence. The fluorescence of the ThioflavinT bound to Aβ fibrils in the absence of any other molecule after 72 hrs was set to 100%. […] Fibril formation=ΔfluorescenceAβ (with chaperone)*100/ΔfluorescenceAβ (without chaperone)."}},
  "data": [
    {"substance": "ERTIPITRE", "values": [
      {"measurement": "effect on the thermal aggregation of βL crystallin (chaperone activity)", "setting": "βL crystallin", "value": "slightly lower than the HG peptide"}
    ]},
    {"substance": "STSLSPFYLRPPSFLRAP", "values": [
      {"measurement": "effect on the fibrillization of γD crystallin", "setting": "γD crystallin [1]", "value": "strongest effect"},
      {"measurement": "effect on the thermal aggregation of βL crystallin (chaperone activity)", "setting": "βL crystallin", "value": "weakest effect"}
    ]},
    {"substance": "WIRRPFFP [Peptide 5]", "values": [
      {"measurement": "protein pin assay result with target protein beta amyloid", "setting": "beta amyloid", "value": "positive"},
      {"measurement": "absorbance at λ=450 nm, interaction with ADH", "setting": "[2]", "value": "Maximum absorbances"},
      {"measurement": "absorbance at λ=450 nm, interaction with CS", "setting": "[3]", "value": "absorbance maxima"},
      {"measurement": "absorbance at λ=450 nm, interaction with βH crystallin", "setting": "bovine βH crystallin", "value": "Maximum absorbances"},
      {"measurement": "absorbance at λ=450 nm, interaction with γD crystallin", "setting": "γD crystallin [4]", "value": "maximum absorbances"}
    ]},
    {"substance": "αB crystallin: wild type recombinant human αB crystallin, a small heat shock protein and molecular chaperone", "values": [
      {"measurement": "effect on the fibrillization of γD crystallin", "setting": "γD crystallin [1]", "value": "weakest effect"},
      {"measurement": "Δfluorescence (γD crystallin)", "setting": "γD crystallin [1]; ThioflavinT, 50° C. for 72 hours, no chaperone 888,803,840", "value": "1,079,141,056"},
      {"measurement": "Δfluorescence (Aβ)", "setting": "Aβ", "value": "318,471,040"}
    ]}
  ]
}
